“Also recorded” adds a separate entry of the source. Where no end group is shown, it is not given here. The star is where a group is joined. Biotin = O=C1N[C@H]2[C@H](CS[C@H]2CCCCC(=O)*)N1
B1: PanC (DYWDTSWPLLLFGGGC) (peptide)
peptide: DYWDTSWPLLLFGGGC
modifications: also: radiolabeled with 99mTc, site not given here, unlabeled form also used
notes: also called peptide PanC
B2: synthetic epitope of Hsc71 (GIPPAPRGVPQIEVTF) (peptide)
peptide: Biotin-GIPPAPRGVPQIEVTF
notes: Amino acids 463-478 of Hsc71, synthesized with N-terminal biotin

Tests used:
Hsp70 = target: T1, Hsp70 (Homo sapiens, UniProt P0DMV8); assay: Binding competition between epitope of Hsc71 and Hsp70 for 99m-Tc labeled PanC; conditions: various concentrations of epitope, constant 99m-Tc labeled PanC, 1 hour at room temperature
T1 construct: purchased BioVision, Mountain View, Calif
T1 sequence (P0DMV8 whole entry): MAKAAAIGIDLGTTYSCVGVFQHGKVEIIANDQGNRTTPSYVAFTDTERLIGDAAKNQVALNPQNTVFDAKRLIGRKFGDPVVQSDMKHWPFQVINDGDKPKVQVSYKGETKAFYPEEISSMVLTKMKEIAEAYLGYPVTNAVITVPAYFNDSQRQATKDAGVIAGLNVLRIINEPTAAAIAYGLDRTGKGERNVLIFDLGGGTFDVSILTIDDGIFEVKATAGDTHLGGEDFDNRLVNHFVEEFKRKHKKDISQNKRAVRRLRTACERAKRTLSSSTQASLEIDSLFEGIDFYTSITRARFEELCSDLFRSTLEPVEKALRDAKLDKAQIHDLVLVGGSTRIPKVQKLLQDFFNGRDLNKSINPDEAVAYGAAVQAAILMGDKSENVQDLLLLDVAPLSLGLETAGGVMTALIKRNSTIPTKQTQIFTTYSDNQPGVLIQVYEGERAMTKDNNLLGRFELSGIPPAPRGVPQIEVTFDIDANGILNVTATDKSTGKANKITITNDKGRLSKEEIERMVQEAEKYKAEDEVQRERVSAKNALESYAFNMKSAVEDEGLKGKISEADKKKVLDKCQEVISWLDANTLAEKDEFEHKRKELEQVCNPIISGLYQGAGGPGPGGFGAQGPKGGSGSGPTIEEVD

BSA = BSA (Bos taurus, UniProt P02769); assay: Binding competition control: 99m-Tc labeled PanC on BSA coated wells; conditions: various concentrations of epitope, constant 99m-Tc labeled PanC, 1 hour at room temperature
Chain of BSA (P02769 25-607): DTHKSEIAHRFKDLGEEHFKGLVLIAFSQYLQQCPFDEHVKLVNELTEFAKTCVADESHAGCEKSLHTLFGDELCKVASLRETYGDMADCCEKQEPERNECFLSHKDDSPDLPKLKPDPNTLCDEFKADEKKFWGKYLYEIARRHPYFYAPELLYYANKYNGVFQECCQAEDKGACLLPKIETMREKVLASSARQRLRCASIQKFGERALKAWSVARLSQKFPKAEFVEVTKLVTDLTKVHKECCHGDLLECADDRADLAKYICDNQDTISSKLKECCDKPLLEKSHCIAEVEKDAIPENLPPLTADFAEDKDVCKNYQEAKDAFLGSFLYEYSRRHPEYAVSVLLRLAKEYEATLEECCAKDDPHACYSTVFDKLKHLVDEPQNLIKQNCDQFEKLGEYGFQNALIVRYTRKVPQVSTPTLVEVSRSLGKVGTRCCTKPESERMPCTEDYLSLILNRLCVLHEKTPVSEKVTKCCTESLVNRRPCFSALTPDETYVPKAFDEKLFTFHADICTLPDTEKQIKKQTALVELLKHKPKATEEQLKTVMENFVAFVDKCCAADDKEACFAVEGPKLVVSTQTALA

CCD-1070Sk (fibroblasts) = assay: Cell internalization of fluorescein labeled peptide (fluorescent microscopy); assay type: cell-based; conditions: fibroblasts CCD-1070Sk; 25 μM peptide, one hour at 37C
Method: (§1) […], DU-145, and CCD-1070Sk were grown in culture as detailed above. Cells were grown on coverslips in 6 well plates. A 25 μM solution of peptide […]-fluorescein (PanF; SEQ ID NO:12) was prepared in modified Eagle's medium. Cell culture media were replaced with 1.6 mL of peptide-containing medium, and the cells were incubated with peptide for one hour at 37C. Medium was removed and cells were washed three times with PBS. Two mL of 2% formaldehyde in PBS was added to each well, and plates were kept on ice for 15 minutes. Cells were washed with cold PBS three times and rinsed with distilled water. Coverslips were mounted with DAPI containing media and viewed with an Olympus BX51 fluorescent microscope and DP70 digital camera with excitation and emission wavelengths of 490 and 520 nm.

DU-145 (prostate cancer) = assay: as above; assay type: cell-based; conditions: prostate cancer DU-145; 25 μM peptide, one hour at 37C
Method: as §1

NCI-H460 (lung cancer) = assay: as above; assay type: cell-based; conditions: 25 μM peptide, one hour at 37C
Method: as §1

[1] = target: B2; assay: 99mTc-PanC (20 nM) with 100 uM biotinylated epitope and unlabeled PanC, Neutravidin bead pull-down, gamma counting
PanC (DYWDTSWPLLLFGGGC) = target: B1; assay: competition: epitope peptide at various concentrations against Hsp70-coated wells for 99mTc-PanC; competitor Hsp70
Method: A 96 well plate was prepared by coating each well with Hsp70 (BioVision, Mountain View, Calif.) or BSA (control) by adding 0.5 μg/well in 100 µL of PBS and incubating overnight at 4C. The next day, each well was washed 3× with PBS. […] At the end of incubation, each well was washed 3× with PBS.

GIPPAPRGVPQIEVTF (not fully specified (N-terminus)) [synthetic epitope of Hsc71, Conserved region, amino acids 463-478 of Hsc71]
suppression of PanC binding to Hsp70 by the epitope (Hsp70): suppressed binding of PanC to Hsp70 in a concentration dependent manner
suppression of PanC binding to Hsp70 by the epitope (Hsp70; listed as Hsc71 epitope): interferes with PanC binding to Hsp70 in a concentration dependent manner
suppression of PanC binding to albumin (BSA control) by the epitope (BSA): suppressed binding of PanC to albumin approximately equally at all concentrations
suppression of PanC binding to albumin (BSA control) by the epitope (BSA; listed as Hsc71 epitope): suppresses binding of PanC to BSA approximately equally at all concentrations

DYWDTSWPLLLFGGGS(KFAKFAK)3 [PanL]
cell death (percent cytotoxicity) (lung cancer (NCI-H460)): dose dependent increase in cell death
cell death (percent cytotoxicity) (prostate cancer (DU-145)): dose dependent increase in cell death

DYWDTSWPLLLFGGGSK (SEQ ID NO:12; PanF) (Flourescein)-amide (DYWDTSWPLLLFGGGSK-NH2; also: fluorescein label, site not given here)
cellular uptake (internalization) by fluorescent microscopic visualization (CCD-1070Sk (fibroblasts)): significant uptake wasn't seen; also recorded: but not fibroblasts
cellular uptake (internalization) by fluorescent microscopic visualization (DU-145 (prostate cancer)): significant cellular uptake; also recorded: Significant internalization
cellular uptake (internalization) by fluorescent microscopic visualization (NCI-H460 (lung cancer)): significant cellular uptake; also recorded: Significant internalization

B1
labeled/unlabeled PanC ratio above which binding saturates [1]: > 0.1%

B2
binding result (PanC (DYWDTSWPLLLFGGGC)): binds
